Test results: patent US20190284262A1

Experiments:
[1] = molecular target: HLA-A2 on MAC-1 and MAC-2A cells (Homo sapiens), A*02:0; experiment: flow cytometry on MAC-1 cells, HLA-A2 staining; isotype control 93.6
[2] = molecular target: 017-mut2 peptide (…)/HLA-A*02:01 complex on T2 cells (human); experiment: flow cytometry, HLA-A2 staining of T2 pulsed with peptide A2 (T2 stabilisation)
[3] = molecular target: T2+FoxP7-G10 (Homo sapiens), A*02:0; experiment: flow cytometry, HLA-A2 staining of T2 pulsed with peptide G10 (T2 stabilisation)
[4] = molecular target: 017-mut3 peptide (…)/HLA-A*02:01 complex on T2 cells (human); experiment: flow cytometry, HLA-A2 staining of T2 pulsed with peptide A3 (T2 stabilisation)
[5] = molecular target: 017-mut8 peptide (…)/HLA-A*02:01 complex on T2 cells (human); experiment: flow cytometry, HLA-A2 staining of T2 pulsed with peptide A8 (T2 stabilisation)
[6] = molecular target: 017-mut9 peptide (…)/HLA-A*02:01 complex on T2 cells (human); experiment: flow cytometry, HLA-A2 staining of T2 pulsed with peptide A9 (T2 stabilisation)
[7] = molecular target: Foxp3-7 peptide/HLA-A*02:01 complex on the cell surface (human); experiment: flow cytometry, HLA-A2 staining of T2 pulsed with the wild type Foxp3-7 peptide (T2 stabilisation)
[8] = molecular target: HLA-A2 on MAC-1 and MAC-2A cells (Homo sapiens), A*02:0; experiment: flow cytometry on MAC-2A cells, HLA-A2 staining; isotype control 86.2
[9] = molecular target: 017-mut7 peptide (…)/HLA-A*02:01 complex on T2 cells (human); experiment: flow cytometry, HLA-A2 staining of T2 pulsed with peptide A7 (T2 stabilisation)
[10] = molecular target: 017-mut1 peptide (…)/HLA-A*02:01 complex on T2 cells (human); experiment: flow cytometry, HLA-A2 staining of T2 pulsed with peptide A1 (T2 stabilisation)
[11] = molecular target: HLA-A*02:01 on T2 cells alone (no peptide added) (human); experiment: flow cytometry, HLA-A2 staining of T2 without peptide
[12] = molecular target: 017-mut5 peptide (…)/HLA-A*02:01 complex on T2 cells (human); experiment: flow cytometry, HLA-A2 staining of T2 pulsed with peptide A5 (T2 stabilisation)
[13] = molecular target: HLA-A2 on MAC-1 and MAC-2A cells (Homo sapiens), A*02:0; experiment: flow cytometry on MAC-2A cells, isotype control of BB7
[14] = molecular target: HLA-A2 on MAC-1 and MAC-2A cells (Homo sapiens), A*02:0; experiment: flow cytometry on MAC-1 cells, isotype control of BB7

Substance	Median:FITC-A [1]	Median:FITC-A [2]	Median:FITC-A [3]	Median:FITC-A [4]	Median:FITC-A [5]	Median:FITC-A [6]	Median:FITC-A [7]	Median:FITC-A [8]	Median:FITC-A [9]	Median:FITC-A [10]	Median:FITC-A [11]	Median:FITC-A [12]	Median:FITC-A [13]	Median:FITC-A [14]
BB7 (antibody)	35000	11200	34100	35100	16500	10400	18000	44000	18600	29600	6940	10400	–	–
mIso (antibody)	–	–	–	–	–	–	–	–	–	–	–	–	86.2	93.6
